The source of these data is FireProtDB (doi:10.1002/prot.340230110).

B1: Regulatory protein rop, P03051 (parent)
chain: MTKQEKTALNMARFIRSQTLTLLEKLNELDADEQADICESLHDHADELYRSCLARFGDDGENL

The data set covers variants of B1. The settings on record: Escherichia coli, pH 6, Thermal, DSC, Sodium phosphate/Sodium sulfate 10 mM/10 mM/, reversible: yes, structure 1ROP, whole UniProt chain shown.

Usually Tm stands for the temperature at which the thermal transition is half complete.

In the case of L41A, the Tm came out at 52.9 °C; the “change of melting temperature, mutant - wild type (higher = more stable)” value is -18.1 °C; the “heat capacity change of unfolding” value was determined as 1.65 kcal/mol/K; the “unfolding enthalpy (calorimetric)” value came out at 80.1 kcal/mol. Besides, the “unfolding enthalpy (van 't Hoff)” value was determined as 92.8 kcal/mol. For the setting “25 °C”, the “ddG of mutation (higher = less stable)” value worked out at 6.12 kcal/mol, the “heat capacity change of unfolding” value was determined as 1.65 kcal/mol/K and the unfolding free energy is 11 kcal/mol.
On to L41V, for which the Tm turned out to be 65.3 °C; the “change of melting temperature, mutant - wild type (higher = more stable)” value is -5.7 °C; the “heat capacity change of unfolding” value came out at 1.99 kcal/mol/K; the “unfolding enthalpy (calorimetric)” value was found to be 110 kcal/mol. For the same variant, the “unfolding enthalpy (van 't Hoff)” value came out at 114 kcal/mol. Moreover, where the note is “25 °C”, the “ddG of mutation (higher = less stable)” value stood at 2.53 kcal/mol, the “heat capacity change of unfolding” value was 1.99 kcal/mol/K and the unfolding free energy worked out at 14.6 kcal/mol.
